3 substances from patent US20240075137A1 can be followed below.

Assay [1] addresses human TIGIT on cells (human) (UniProt Q495A1). The experiment in a line: FACS blocking: Expi293 human TIGIT cells pre-incubated with mAb, then human PVR-m2aFc; lower gMFI = more blocking.
The target is the same in assay [2]. The experiment in a line: FACS, Expi293 human TIGIT over-expressing cells.
For assay [3] the target is unchanged. Nature of the assay: FACS titration on Expi293 human TIGIT over-expressing cells (gMFI OE:Parental); ± 95% CI; 'Fit: Fair/Good'.
The target in assay [4] is mPVRL2 HIS (mouse) (UniProt P32507). The experiment in a line: ELISA: mPVRIG-mFc titrated on mPVRL2.
The target is the same in assay [5]. Nature of the assay: ELISA: soluble receptor Fc titrated on immobilized mPVRL2 HIS.
Assay [6] deals with mPVR (recombinant protein) (mouse). Nature of the assay: SPR/ELISA with recombinant proteins.

Sequence of human TIGIT on cells (human) (Q495A1 22-141): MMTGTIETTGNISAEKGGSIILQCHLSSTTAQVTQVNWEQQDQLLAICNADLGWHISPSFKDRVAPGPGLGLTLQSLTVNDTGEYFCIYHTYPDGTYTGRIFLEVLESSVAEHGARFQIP
Sequence of mPVRL2 HIS (mouse) (P32507 32-351 limits assumed): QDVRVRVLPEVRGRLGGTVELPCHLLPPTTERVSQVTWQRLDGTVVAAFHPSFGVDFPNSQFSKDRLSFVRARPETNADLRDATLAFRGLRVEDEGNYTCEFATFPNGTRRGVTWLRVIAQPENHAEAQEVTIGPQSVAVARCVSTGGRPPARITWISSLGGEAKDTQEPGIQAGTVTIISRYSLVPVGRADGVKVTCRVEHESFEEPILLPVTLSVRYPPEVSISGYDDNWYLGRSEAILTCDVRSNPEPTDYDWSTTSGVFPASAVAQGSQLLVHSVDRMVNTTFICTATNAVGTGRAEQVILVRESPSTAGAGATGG

As for Synagis hIgG4 (antibody), in assay [1], the gMFI of bound PVR-m2aFc at 266 pM mAb came to 959, the gMFI of bound PVR-m2aFc at 1.3 nM mAb was 964 and the gMFI of bound PVR-m2aFc at 6.7 nM mAb came to 828.
For the substance “human PVR-m2aFc (Compugen) (from UniProt P15151 21-343) (Fc fusion)”, in assay [2], the 90% effect concentration (EC90) was determined as 158 nM. Moreover, in assay [3], the Kd was found to be 8.48 nM.
As to mouse PVRIG-Fc fusion protein, the concentration for a half-maximal effect (EC50 (read off the curve)) with mPVRL2 HIS (mouse) [4] and with mPVRL2 HIS (mouse) [5] was 2 nM throughout. In addition, the fold lower affinity than the interaction with mPVRL2 in assay [6] is 10 fold.
